Data reported in the DeepSol protein solubility set.

Test: soluble on expression in E. coli; label from the status in PepcDB or PDB records

| Sequence | soluble on expression in E. coli |
| --- | --- |
| IPGKDVAVTAGRVVFQNHLIELIQYEAQTKTVYKEPILILPAWIMKYYILDLSPHNSLVKWLVKQGHTVFIISWRNPDKEDCDLGMDDYYRLGAMAAIDMVSTILPETKINLMGYCLGGTLAMITASMMGRYEDERLNCLTLLAAQGDFSEAGELMLFVNESQVDFLKSMMWEQGYLDTKQMAGSFQMLRAYDLIWSKMVQDYMHGMRRGMIDLTAWNADATRMPYKMHSEYLEKLFLNNDFAEGRYMVEGKSVAAENIQCPIFAVSTKKDHVAPWQSVYKIHLMTEENVTFVLTGGGHN | not soluble |
| MSLTVLPVPDLLARALDRRAGLPGAGTTFFRAVHITETGGLWTLDVAGDAGILSLYTDLSAEAERDLAAQCGEAAGLSSVYLKRRPPEAKHLANVAREVLSPPDPLWGTARPEVTALEEGVPFLIRPGADLSVGLFSDARPARRWVRGHAAGQRVLNTFAYTCGFGLNAALAGAASVKNVDLSRKVLGWGQQNYALSGLAAPDHDFLYGDVFEWLTRLQRRGDLFDLVILDPPGFARSKAGTWRAEKDYGRLMAQASAVTAPGGEVLALLNHAGVSAGGLTHMVEQGLSTAGRRGHLTETLGPGRDYPGATHLKVQRWSLNEGGSHHHHHH | soluble |
| MSQTITVKVKLLPTKEQIQLLEQSSYEYIKVINTLVSEMAEAKKSTKKSTKDVEANLPSAVKNQAIKDAKSVFSTKVKKSKYKVIPILKRPVCVWNNQNYSFDFTHISVPLMVNGKSTRLKVRALLTDKYNRNFNLLTHKLGTLRITKKSNKWIAQISVTIPTNEKTGTKILGVDLGLKVPAVAITDDEKVRFFGNGRQNKYMKRKFRSVRKKLGENKKLNAIRQLDDKEQRWMQDQDHKVSREIIDFATDNNISVIRLEQLTNIRQTARTSRKNEKNLHTWSFYRLAQFIEYKANLVGIKVEYVNPAYTSQTCPKCSEKNKAPDRKYKCRCGFEKHRDIVGAMNIRYATVIDGNSQSALEHHHHHH | soluble |
| MRKSMISFLEKKAKNEKITMVSAYDYHSARILDNSDIDIILVGDSLAMTVLGMQDTLSVTMDEMLIFTKAVSRGAKKSFVLADMPFMSYQSSDRDAILNASRFIKESHANGVKVEGGIEIASKIKLISQSGIPVVAHLGLTPQAVNMLGGYRVQGKDLQSAQKIIDDAKAVQDAGACMLVLECVPVKLAQKISSILEIPTIGIGSGKYCDGQVLVYHDLLGLNKDFKAKFVKHFDKIDPQVGVEKYRDEVKSGIFPSQEHSFDYLDDELLDKLY | not soluble |
| MGSDKIHHHHHHMDDGTRLGQADHAAGPRPPGVIFTMRYPSDVGFVWKTIALHRDLIARAFGGEARCILAYPQLSPTSAYQPRWSTAIQADFYDYSAENRQRLERVITDEAIRLVVFMSAQPADVDLGFLRGLGLRTVTSENNSYDHSLRQPFMKRLAKALIRRVLKRQVFDLHIANSQAQYDFLRGFAQLPASRLRAVRNGVDTDHFQPGERTGACSTLGLDPDRLWIMAASQARPEKRLERVLEVIRAVKDARPALPIGFFFVGEGENLAEWRQIALGLPDAETYRFFGRQNDLRPYYQAASVFIHGAFRESFGLVIAEAMASGLPVVATHAHGPAEIIAEGETGRLVGRDDWEGLGKAVIEYLDDAELRRTHGLAGRARCVALFSITRQAQEFADLLRPFLKDGAGAPY | not soluble |
| MSDDKKSLINIELLPKELITNLFGPATKSIGEGLGGIVNYVVGPLRKLNVVSEKSYIDFVEKINSKTDSIPVDNRDDSKLGFALKTMEDARYQLEDEDMREYFSNLLAGLVDNRKNQDSSPRFSIILSELTTIDANLLKKLYKLSITPTIKVRVQAPNGNGIDYIENLILTQKGIVENNFSDLSPSLQTLRSYGLIDIRPSIELTQKKHTKIYDDFENSTYFKTLKYNLNSFFANSSFFKDTGFSIISIRGSIHVTDLGFLFCSKIFSSEEE | not soluble |
| MGSDKIHHHHHHMGGIGLRRLGCGEAIQIGGDTRAGPVVQIESADHVQSGGDGKGLDTPSIGPDPKRVAVIGHHHVEGAIGVPVQIGKGLSGVHGIGMIQGFEYQFAARPLARRRAQRSDAVENGRHDAGIVDTQPGPPRQLVQPGHHFGAVVPPTARTIPGPGVHLVAIGGDDQRPLVARAAKQNKSAHSQKSVSSGLSARYNTTCVHRFHPVGAKHRKGYGTRLIMTAFDDREKAFEAKYRLDQEQEFKARIRRDKLLGLWAAEQMGISGDAAKTYALSVVDVEFDATDRDAGHKIVRDFIASGITLDEAAIRHQMAVLLEIAREQIVTEMGRP | not soluble |
| MGSDKIHHHHHHMSAVLYSNLKFLRFKDQLDALAGGTVAPPVHIRIKPTNRCNHKCWYCAYRTDDLKLGEDMDESDLIPEAKMMEIADDIVAMGVKAVTFSGGGEPLLYKPLPEVIDRLAAGGVRVATLTNGANLKGKVAQSLARHATWVRVSVDAWDDDSYVSSRGAKAGEFTKLLENMKAFVETGTKCVLGVSFIAGKDNYHRLSEVCARFKAIGVNHVKLSAAVVGNSVDENNRYHREFAEGARAEIERAKALSGDGFSVLDHFHEMESRFEKDYHRCPFLQFLTVIGADQTVYTCQDKAYTKEGTLGSIRGRSFRDYWFSEENRQRMAEFDPSRLCRHHCVSHSKNQAIMQYLSIDSEHGLFV | not soluble |
| MVSSQKLEKPIEMGSSEPLPIADGDRRRKKKRRGRATDSLPGKFEDMYKLTSELLGEGAYAKVQGAVSLQNGKEYAVKIIEKQAGHSRSRVFREVETLYQCQGNKNILELIEFFEDDTRFYLVFEKLQGGSILAHIQKQKHFNEREASRVVRDVAAALDFLHTKDKVSLCHLGWSAMAPSGLTAAPTSLGSSDPPTSASQVAGTTGIAHRDLKPENILCESPEKVSPVKICDFDLGSGMKLNNSCTPITTPELTTPCGSAEYMAPEVVEVFTDQATFYDKRCDLWSLGVVLYIMLSGYPPFVGHCGADCGWDRGEVCRVCQNKLFESIQEGKYEFPDKDWAHISSEAKDLISKLLVRDAKQRLSAAQVLQHPWVQGQAPEKGLPTPQVLQRNSSTMDLTLFAAEAIALNRQLSQHEENELAEEPEALADGLCSMKLSPPCKSRLARRRALAQAGRGEDRSPPTAL | soluble |
| MGSDKIHHHHHHMHFLDDSLLPENQEKLVIQVAPYGPQWLPGDSDDIPVTMDEQVQKAVDCYNAGATVLHVHVREADGKGSKRLSMFNEMLARLREAVPGMVLQVGGSISFAPENDNQAAKWLNDDTRHMLAELSPRPDQVTVAINTSQMNVMELMTEADVAGTSLTNPALQAAYRDMIVPSNPSWHVEHIKRLVANGIQPHFMLGNLTQLETVERLIRRGVYTGPLVLNYVAIGGGAAGLHPADMVEFARRTPDGAVLTVETLNRNVVPLNTMAIAMGLHVRVGIEDTLYGPDGKRATSVQQIEKMVNIARELNREIASGTDAHRIYQTGTRWSSTEETLNRLGMVPNRQPEQRGVPPRKAA | not soluble |
| MGSDKIHHHHHHVAKQKFKITNWPTYNKALINRGSITFWLDDEAIQAWYESATPSSRGRPQRYSDLAITTVLVIKRVFRLTLRAAQGFIDSIFTLMNVPLRCPDYTSVSRRAKSVNVSFKTFTRGEIAHLVIDSTGLKVFGEGEWKVKKHGQERRRIWRKLHLAVDSNTHEIICADLSLNNVTDSEAFPGLIRQTHRKIRAAAADGAYDTRLCHDELRRKKISALIPPRKGAGYWPGEYADRNRAVANQRMTGSNARWKWTTDYNRRSIAETAMYRVKQLFGGSLTLRDYDGQVAEAMALVRALNKMTKAGMPESVRIA | not soluble |
| MSYNGSYHQNHHSTLQVKSKFDSEWRRFSIPMHSASGVSYDGFRSLVEKLHHLESVQFTLCYNSTGGDLLPITNDDNLRKSFESARPLLRLLIQRRGESWEEKYGYGTDSDKRWKGISSLMAQKPPKRSYSISNPEDFRQVSAIIDVDIVPEAHRRVRLCKHGQERPLGFYIRDGTSVRVTERGVVKVSGIFISRLVDGGLAESTGLLGVNDEVLEVNGIEVLGKTLDQVTDMMVANAHNLIITVKPANQRNTLSRGPSQQGTPNASEMSAATAAATGGIQRPMKMNGSSDGSYHPKQHDANDSDSGED | not soluble |
| MAHHHHHHMNYNNNSFIPPTHVVKNIYTSAKTKFFLIKSSSDKNIAISLNYNIWATTPKNEYKFVSAFMEHDYVILVFSVNGSSKFCGYAIMQSKPGESKNNNVYFYYDNKVFRGKNFDIQWIRVVDVPFQEVAHLKNSLNEYKPIKVGRDGQEIEQMAGIQLCEAFESNFIKINNNITDTNTKPNIPPMYNMNTNNYVDSPNMNENIDMIKLYPYNNNFNINYNNFRNLYEESQYNLFNFYNPALHIFPIDLTNMNYDEYIYLYEKSQLVWQQKMLQMKANMNCIKQ | not soluble |
